From the domain aggregation screens of Martell et al. (2025)

Assay: soluble fraction after stress (log2 fold change); higher = more stays soluble; pooled small domains, quantitative proteomics
Conditions: stress: pH 4
Method in brief: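 Custom libraries of small protein domains were pooled and measured with high-throughput quantitative proteomics after pH 4 stress. The read-out is the fold change in the amount of each domain that stays soluble after the acid stress, taken as a measure of aggregation propensity. Fold changes are on a log2 scale, and higher values mean more of the domain stayed soluble.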

Sequence | soluble fraction (log2)
HMLTSIDQMLKLAMPDSDITVSKMNGLILLTGTVKAPEDAAEAERLVQAFSAPPPGQPPVTVVSRLRTA | 0.22
HMNPTTQIQYNLPKSEFVSIYIYDLIGNRVKSLINNYQDAGYKSVYWDAMNDLGQPVSAGMYIY | -0.0442
HMGISSESIKTFIREIVENEDPKAPLSDQTMVELLAERGIDISRRTVAKYRDEMNLPSSSKRKR | -0.168
HMYYIITNGKYWVIENPIRPGEYMESTKSSNAKQFTFKQAKNLLNARSKKLGWIRNGYSMVGED | 0.427
HMKPGWEDIFRMNQIQLEDAVRTVNRDDTLAPTKKAYLIQNLLASRWIVGNQLQAQKDKTTE | -0.335
HMGSWEDALKNWVDSALASGQKGILEQAVPKFERIMIETALTHTAGRRRDASLLLGWGRNTLTRKIKELGI | 0.0465
HMNTAIDGLIEKVGMFAMEKKAISVDQVKENFSINGEQAESVIKQLETIGVLGKKNEDGTHTVM | -0.0986
HMVDPWLEQVHRASAAYATAHGSARIPTTHPDLGWKVVRVRQRHRKGLLSDEWVAKFEALPGWTWEPK | -0.471
HMPAVGGVVKGAVVSVGRNEVRLDIGGLAIGIIRGPELDKHVDLRIGDEVEATVITLDNEFGELELSL | -1.73
HMAEGPYSGKKVEKYPGGMEKRETMYSEGKLTRVTEFHQSGQKKMEVKVDANGQWKRLYWDNNGNPT | -0.086
HMKPQIRRHEKITALVREHGFMSVEQLARELEVTPQTIRRDIGILSAENVLRRYHGGAALGD | 0.148
HMKNEYAMVIQVNGKLRGNMLVSADLEQKDIERMALDNEDIKRFISHENDVKKMIFVPKKLINIVT | ≥ 0.43
HMAKRPRFEDVIKEINTEIQKRKGKWNLTILSWMDFDDVAQVIRIHIYRKWHLYDPSKPLGPWLNR | 0.322
HMQADTATITGNGVNMRSGPGTNYQIIDTIPKGTVAEVLSQQDGWVKIYSARISGWVSASYVEIKQT | 0.18
HMIEKVNDYVVRFANVNGTGSASANNLFALAIYRMGVPVTPKNIFPSNIQGLPTWFEVRVSGSGYLARRG | 0.129
HMSVKLMEVKGASTVVSRQVREAVSIVFPTSSMRLDLVALKARIEGVDAVKRADVYLRNGILEIQIDER | -0.981
HMSEEQLKAFLEKVQGDTSLQEKLKAAADANAVVEIAKEAGFSISADDLKNAQSELSEEELE | -0.257
HMNTPALRQRTQDVPALLIHFAKYFATKGQTPISFAPDFLEALKDYPWPGNVRELRNLVESMVV | -0.0956
HMDGASVQRITELTATLNRYRHEYYNLAKPSVSDAVYDRLFDELAALEQKTGIVLSNSPTQTV | -0.759
HMSEEELETSGLVKRSAKGNLYDIFRHRVMVPIIDVRGAIIAFGGRVLDDSKPKYINSPETMVY | 0.0468
HMGDVKLNAIYNFLKEFSALNGFPPSVREIGAKFGIKSTSTVHYYLEKLKQSGVIQQEENKKRAVVIN | -0.446
HMTSAPHHIAAVLRDAIYRGVLEEGGPLHQARIAQSLGVSPIPLREALRLLETEGLVEFRGYRGAFVT | -0.8
HMASMEDILAEAKTKFQEGDLFKSVNEGIQGTHKLTLPLRIKESRIVDASGAAVYREGIWATVDK | 0.185
HMHSILDDIEGIGPARRKALMRHYMNLDAIKSATVEELAAVPSMNEKSAKAVHNFFHQQKKD | 0.22
HMVAEKSKIEMAIDSINKLAKELADSGVAKKTISDIIKSVSGSANYNKITDFEVATDVYKELVALKNKEDT | -0.224
HMTALTTEDLERRFYAKTYEGESAQKRLARLEISVFGELRQGRPESDRLHDLNNAVLEKERAALNAGAVG | -0.0471

Sequence | soluble fraction (log2)
HMEYQSLVLDFLEQGDFNAEKLKDYQRAFAKQNGMQTLPSKSQILQAYFQLVEEKKINKNSDFELLLRKR | -0.362
HMGKAMIDWEREQSILRILLRQKALTTEQAREVYQDGMREDLSALEMGVQRGYFTHEQLREATGGE | 0.00817
HMRFGNHHVYRTLMVLSDQKRKGRKQIADAVGIGEGSMRTIIEYLRGLDMIDIRQTGVKITRHGNAFL | 0.138
HMQHQSGLKSGEFEAISQQLQALLKENPLSLQEIKDKMQVTENHLIKVVSYLVSEEIIRQENGYLK | -1.67
HMSKPTLTLKSNAYPYNLNGERINNYLGFTYIKKGATLNYQGSKRINGQNYYYIGDGAYIKNTTVGSTNN | ≥ 0.43
HMKTEKYIQVISGTVNVRSGPGTSYAEIAKIDASQIYVVTAKEGEWLKISLANGTIGYVAGWLVKEVTG | -0.331
HMELSSRQAMIVDIVRKYEPITSEQIADKLNLTRSALRPDLAVLTMIGILEARPRVGYFFTGK | -0.269
HMLNDTGAIRAAVEEVLAANEKSVNEYKGGKTQAFQYLIGQSMRALRGKAPAQEVTKLLKELLG | -0.0483
HMGVGERIKARRKEIGLSAEQVAKELGVSPATVYRYESNDIMNMRIDKLEPIAKALHTTPAYLMGWE | 0.155
HMSFPQVELNTNKGRIVLELNSEKAPKTVANFLEYVRDGFYDGVIFHRVIDGFMIQGGGFDENFKEKA | -0.275
HMNLLSPREKQSLTLYASGLTLREVASELKLSPNSVGKFISRGKFKLNKSGAIVNSKTSIYLELKKRNLI | 0.108
HMPSQEQSDKNAAMAFLPVIVKNALNGKGLKISDDWKAAVNTALAQYPLVNKFFNADSPEVTELVMGL | 0.0187
HMADYYETLGVERTASEEDIKRAYRKMSRKYHPDIAGPEFEEKFKEVNTAYEVLSDPDKRRMYDAGVDPND | 0.0648
HMNEPSSYGYAISVALDRNGLGTVKGGTLYPLLARLEQAAHVETRWEAGDGGPGRKYYTITDSGRS | -0.41
HMVDQKLIQASAEHSGIRIDRFLSEQLPEHSRSYIQKLIKDGQVSIGGKAVKSNYKIAGTEEISLLIPDQ | -0.224
HMDEKLAHKLVSDFRQAAASLERFPFRNPVLRSEVFTVEKYRKLVFDKYHILLYQVKDQVVYVEYVIDGRQ | ≥ 0.43
HMYFEDEELDRFVGTPAGAYTEEDVEEFRDVLLSLDIEEVPSWVRSLQLRGIDFPETLRPELYLL | -2.72
HMSHSDMEEWTDAVRSRRKKLGLTQVQIARRLGVTSHHFSQIESGRTIPSASLQIEIDRLLKNWND | 0.0462
HMKEVELENMIKAKGFKDAAVLVDERSVTVIVESERLAAGDSASIKELVSRGTGVDPQNVVII | -0.295
HMNDNFTPDDLNRLARIKDLPQAKKYALELISNKSAKPMKPEKVRWFANQLQKKKSVMDITKMMYDLLLA | 0.198
HMPSLNDRPDDVLYLFSYFLQSFSHRQVSLPKILKKALIQHDWWGNIRELHSVALRYYIFGDTLNGAYDSL | -0.895
HMLSPPWYEYHRKVQAMFGRDPEVHIKDLDDLGDGKFSYMILVYNKEKAEAIKAILPQKVEMGNVTIETAI | ≥ 0.43
HMKNVADEVFEKMLNMIIEGDWKKGEMIPSENELREAFSVSRSTVRQAVQRLSALGIVRSRQGKGTYVEQV | 0.0309
HMIDIGSKIKKLRSKKSIEIGKKYTGAMLANELGISRSYLGDIESGRTVPNEIILGKIADIFDVDIYELIG | -0.405
HMAGLKERLFYFIEYKGLTVQSFEKTVGLSNGAVSKMGDNTRRSTIDKISNFFGDLNKNWLLTGEGEMLI | -0.638
HMLSVRNRMSDVLKSLDDGEFHRFESLFNLEEGRLGVVVTFLAMLELAKEMLVEIVQNESLGPIYLKSR | 0.144

Sequence | soluble fraction (log2)
HMIINLGELLKMLEVNKYQDAMDALDSLIEEGGSLEKIESLHEIRQHTHAMNFREAERLLSILIESEGA | -1.41
HMNFEIEVTENGKRIDSYLAEELDLSRSKVQKLIKQELVTVNGKVVSNNYNVKLGDTILVNDD | 0.154
HMTGELEVTAAGLSPEKLLNLAAKNHITLSNVKRLSYTQLSFRIGPADYNRLKKLLPEGRYKLNVGSS | -0.0957
HMNNMVNTLLKLLAEQDVLRGIVRRFTPSSVFVFLQNEEVEVELPLQGRSLAPGQLVELTQEGASVALKRL | -0.679
HMAKQQTTTTAHVVTTGETLYSIAQKNGISVEELKKSNNITSDKLRPGQTLHITKVSKTSSTAK | 0.129
HMSSYTQEDVRSGILYMAQLKPRNIEEFVSTLAFSKDDIMDNLSFLVDEGFLKFDADTDTYFNPVPL | -0.604
HMYTVQQLARLAGITPRTLRHYDAIGLLKPTRVGENGYRYYGSEALLRLQSILLYRELDMPLEDIRRVLDS | -1.23
HMIAITVGSKVRVKAGATFSDGTKPFTEVYNTVYDVQLLSRNGKEARIGIGEQWTGWMYISDLYPADQ | 0.00391
HMSRGTLFVDVRGAVAKPGVYELPEKSRVFQAVEAAGGLLPEALERLVNQAAELTDGQQVYIPFEGEE | 0.429
HMKDNIRSILEDIPNIGPGRRRALLKHFGSIEAIRRASLEDLIKVDGMNRNAALSIMEYFGM | -0.24
HMESKKKTYTVKSGDTLVSILKREGVPQELIFKDYLGLFLELNPQISDINKLRVGQEIVLPVPG | 0.3
HMLGFELVGIRGNNPESTIIILERDDYRLVEQGQNINSSVIFSHIDGSRAYFFDGQTYTFLDI | -2.77
HMKTFSFEILADTVKKQRKAKGMTQAELSEATGINRSMIGQMENMTFKPSIEQLEALSQALDFNVIDLYTE | -0.767
HMSTTSYTQFMEDAKAGKIARVDIKGREITVTPTEGSRYVITSPGDLWMVDDLRKDGVQVYGPP | 0.137
HMARAESYGDIARLEQLLDEHANIAALDPGKLPAVRQQIWTLMRAARMDHDLGLAERPEDDSFDDMLLHV | -0.0475
HMVVLPGEVVALKIIQTGSSKDQGVGYLEDGTMVVVDGAKNSIGKTIEIQISRSHQTVAGRMLFGIAMS | -0.0841
HMKHKHHIIPKHKGGTDHPDNLIELTVEQHAKAHWVEFMLDGREEDYWAWKGLEGVASKKDIIYALSKR | -0.313
HMSYLDTLPGRRVAAQGAITGDAGTLAVDGDTWSARVEPGAPDVAPGDEVTVLRIDGATLVVRPLP | 0.0453
HMREQAHEVAGKLGYPVMVKASAGGGGKGIRIVRTEDELDQAFEAAQSETKAAFGDDQMYMEKVI | -0.176
HMAIGSRLKVTTDATNLNIRSTPSTEGDIVGKAAHHEIVTLVEKTDDSWWKIKTNDGEEGYAYAQYLSPV | 0.0608
HMNSSLFLARQVHALRKKAGLTLQQLSRKSDVSVSTLSKIEKGQLSPTYEKIVSLARGLDVPIAALFHE | ≥ 0.43
HMGTMKGFVDGSSVHLRSGPSLSESIRAKVVKGQTLYITERRGDWYRATVHGGGEGWIHTSLVKLAG | 0.261
HMSKININTITESELKELPISTVKQKAIQDYLIDRGFISNIYDLLDIKEITSDDVSLLKKVVNVKLPY | -0.796
HMGKPTPASQVATRWLAGDLPETLPVAGPAPSFETLARSVSTDFHPRAVLQELLRLGVAEEADGRVRLLK | -0.0325
